T1: Human Siglec-15, His Tag (human Siglec-15 full-length extracellular domain linked with His tag) (human, UniProt Q6ZMC9 20-263)
T1 construct: Bought from ACROBiosystems; also called Siglec-15 protein; SG5-H52H3
T1 sequence: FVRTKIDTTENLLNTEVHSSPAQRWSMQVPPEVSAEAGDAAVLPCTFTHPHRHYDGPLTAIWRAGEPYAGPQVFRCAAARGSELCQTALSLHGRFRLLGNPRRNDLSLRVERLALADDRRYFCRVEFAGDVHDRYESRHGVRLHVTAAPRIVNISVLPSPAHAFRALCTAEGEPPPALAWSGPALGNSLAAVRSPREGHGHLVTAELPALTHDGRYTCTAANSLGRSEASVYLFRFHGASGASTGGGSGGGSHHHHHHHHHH

T2: Cynomolgus Monkey Siglec-15 full-length extracellular domain linked with His tag (Cynomolgus Monkey)
T2 construct: Bought from ACROBiosystems; also called SG5-052H6
T2 chain: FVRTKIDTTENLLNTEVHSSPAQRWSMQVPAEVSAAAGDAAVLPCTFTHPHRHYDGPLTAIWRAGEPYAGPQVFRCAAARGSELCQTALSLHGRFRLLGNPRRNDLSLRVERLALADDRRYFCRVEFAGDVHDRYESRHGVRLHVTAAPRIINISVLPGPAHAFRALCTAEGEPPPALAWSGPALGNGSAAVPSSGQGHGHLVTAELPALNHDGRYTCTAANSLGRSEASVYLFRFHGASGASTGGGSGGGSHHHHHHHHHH

T3: Human Siglec-15 overexpressed on HEK293T cells (HEK293T-hu-S15) (human, UniProt Q6ZMC9 20-328)
T3 construct: whole, on cells; also called HEK293T-hu-S15 cell line
T3 sequence (looked up): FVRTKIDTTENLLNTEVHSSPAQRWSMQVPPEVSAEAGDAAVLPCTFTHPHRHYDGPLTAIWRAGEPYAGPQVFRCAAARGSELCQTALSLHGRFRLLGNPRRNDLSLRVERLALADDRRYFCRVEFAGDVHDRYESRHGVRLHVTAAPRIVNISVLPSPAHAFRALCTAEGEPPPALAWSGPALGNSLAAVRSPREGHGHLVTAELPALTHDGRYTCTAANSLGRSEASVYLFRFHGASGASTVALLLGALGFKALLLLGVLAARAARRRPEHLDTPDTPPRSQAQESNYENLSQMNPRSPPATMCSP


What was measured:
[1] = biological target: T1, Human Siglec-15, His Tag (human …); assay: SPR Biacore, antibody captured by anti-human Fc on CM5, Siglec-15 protein as analyte
[2] = biological target: T1, Human Siglec-15, His Tag (human …); assay: SPR Biacore 8K, antibody captured by anti-human Fc, Siglec-15 His as analyte
Protocol: Affinity analysis was performed using Biacore8K, and a CM5 chip immobilized with anti-human Fc antibody was used to capture the antibodies tested. The stock solutions of the antibodies to be tested were diluted to 5 μg/mL, and injected sequentially into the experimental channels at a flow rate of 10 μL/min at about 500 RU. The analyte was Human Siglec-15, His Tag (Cat. #SG5-H52H3), the diluted human Siglec-15 protein was injected sequentially into the experimental channels and the control channel at a flow rate of 30 μL/min and allowing for a binding time of 150 s and a dissociation time of 700 s. The KD value of each antibody was calculated using Biacore 8K analysis software.

[3] = biological target: T1, Human Siglec-15, His Tag (human …); assay: Octet BLI epitope binning, Siglec-15 His on HIS1K sensor; competitor 75E1F2
Protocol: (§1) Epitope binning assays were performed using the Octet RED96e (ForteBio) System for the antibodies tested. Human Siglec-15, His Tag (Cat. No. SG5-H52H3) (5 μg/mL) was captured by the HIS1K biosensor and bound to primary antibody (100 nM) for 180 s. Then, the Human Siglec-15, His Tag (antigen)-primary antibody was bound to secondary antibody (100 nM) on the biosensors for 90 s. Data analysis was performed using Octet RED96e (ForteBio) analysis software.

[4] = biological target: T1, Human Siglec-15, His Tag (human …); assay: Octet BLI epitope binning, Siglec-15 His on HIS1K sensor; competitor 174C11C9
Protocol: as §1

[5] = biological target: T1, Human Siglec-15, His Tag (human …); assay: ELISA, coated antigen
Protocol: (§2) The variable regions from the antibodies produced by the hybridomas were combined with human IgG1 (N297A) constant regions to generate chimeric antibodies, named as 21F6C6, 75E1F2, 124B11F6, 174C11C9, and 255C12B10, respectively. Binding activity assays were performed on the chimeric antibodies using Siglec-15 proteins from different species, in which human, mouse and Cynomolgus Monkey Siglec-15 proteins were purchased from ACROBiosystems (Beijing, China). Antigen was coated at 0.5 μg/ml, and antibodies were diluted starting from 1 μg/ml and incubated with antigen. Horseradish peroxidase-labeled Anti-Human IgG antibody was used as the secondary antibody and OD₄₅₀ values were read after adding the substrate.

[6] = biological target: T2, Cynomolgus Monkey Siglec-15 full-length …; assay: ELISA, coated antigen
Protocol: as §2

[7] = biological target: T3, Human Siglec-15 overexpressed on …; assay: flow cytometry on HEK293T-hu-S15 cells, detection with anti-human IgG (Fc specific)-FITC, average fluorescence intensity
Protocol: HEK293T cell line overexpressing Siglec-15 (HEK293T-hu-S15) was purchased from KYinno Biotechnology Co., Ltd (Beijing, China) under Catalog #KC-1314. Purified anti-Siglec-15 chimeric antibodies were diluted at a gradient of 100 nM and incubated with HEK293T-hu-S15 cells at 4° C. for 30 min. Flow cytometry was performed after addition of anti-human IgG (Fc specific)-FITC (cat. #F9512) and incubation for 30 min.

[8] = biological target: T1, Human Siglec-15, His Tag (human …); assay: Octet BLI epitope binning, Siglec-15 His on HIS1K sensor; competitor 255C12B10
Protocol: as §1

[9] = biological target: T1, Human Siglec-15, His Tag (human …); assay: Octet BLI epitope binning, Siglec-15 His on HIS1K sensor; competitor 124B11F6
Protocol: as §1

Binder | Kd [1] [pM] | koff [1] [s⁻¹] | kon [1] [M⁻¹ s⁻¹] | also measured
124B11F6-hH1L1 (antibody, IgG1, V domains shown, Humanized; hIgG1 heavy chain constant region, Lambda-C2 light chain constant region) VH: QVQLVQSGAEVKKPGASVKVSCKASVFNIKDYYMHWVRQAPGQGLEWIGRIDPEDDKTKYAPKFQGRATITADTSTNTAYLELSSLRSEDTAVYYCVRGWLGYIMDFWGQGTTVTVSS VL: QLVLTQSPSASFSLGASAKLTCTLSSQHSTYTIDWYQQQPEKGPRYVMELKEDGSHSTGDGIPDRFSGSSSGAERYLTISSIQSEDEADYICGVGATIKEQFVYVFGGGTKVTVL | 109 | 0.000127 | 1.17e+06 | –
21F6C6-hH2L3 (antibody, IgG1, V domains shown, Humanized; hIgG1, Kappa) VH: EVQLVESGGGLVKPGGSLRLSCAASGFTFSSYAMSWVRQAPGKGLEWVATISSGGSLIYYADSVTGRFTISRDNAKNTLYLQMNSLRAEDTAVYYCVRHGYYYGDSTLYYAMDYWGQGTTVTVSS VL: DIQLTQSPSSLSASVGDRVTITCRASQSVDYDGDSYMNWYQQKPGKAPKLLIYAASNLESGVPSRFSGSGSGTDFTLTISSLQPEDFATYYCQQSNEAPLTFGQGTKLEIK | 72.4 | 0.000353 | 4.87e+06 | –
21F6C6-hH2L4V (antibody, IgG1, V domains shown, Humanized; hIgG1, Kappa) VH: EVQLVESGGGLVKPGGSLRLSCAASGFTFSSYAMSWVRQAPGKGLEWVATISSGGSLIYYADSVTGRFTISRDNAKNTLYLQMNSLRAEDTAVYYCVRHGYYYGDSTLYYAMDYWGQGTTVTVSS VL: DIQMTQSPSSLSASVGDRVTITCRASQSVDYEGDSYMNWYQQKPGKAPKLLIYAASNLQSGVPSRFSGSGSGTDFTLTISSLQPEDFATYYCQQSNEAPLTFGQGTKLEIK | 114 | 0.000184 | 1.61e+06 | –
21F6C6-hH2L4 (antibody, IgG1, V domains shown, Humanized; hIgG1, Kappa) VH: EVQLVESGGGLVKPGGSLRLSCAASGFTFSSYAMSWVRQAPGKGLEWVATISSGGSLIYYADSVTGRFTISRDNAKNTLYLQMNSLRAEDTAVYYCVRHGYYYGDSTLYYAMDYWGQGTTVTVSS VL: DIQMTQSPSSLSASVGDRVTITCRASQSVDYDGDSYMNWYQQKPGKAPKLLIYAASNLQSGVPSRFSGSGSGTDFTLTISSLQPEDFATYYCQQSNEAPLTFGQGTKLEIK | 85.6 | 0.000414 | 4.84e+06 | –
174C11C9-hH2L2 (antibody, IgG1, V domains shown, Humanized; hIgG1, Kappa) VH: QVQLVQSGAEVKKPGASVKVSCKASGYIFTDYYMNWVRQAPGQGLEWIGVFNPYSGGISYNQKFKGRVTLTVDTSTSTAYMELSSLRSEDTAVYYCARDYYYLSSHGFYALDYWGQGTTVTVSS VL: DIQLTQSPSSLSASVGDRVTITCRASESVDSYGNSFIHWYQQKPGKAPKLLMYRASNLESGIPSRFSGSGSGTDFTLTISSLQPEDFATYYCQQSNEDPLTFGQGTKLEIK | 325 | 0.000447 | 1.37e+06 | –
174C11C9-hH3L3 (antibody, IgG1, V domains shown, Humanized; hIgG1, Kappa) VH: QVQLVQSGAEVKKPGASVKVSCKASGYIFTDYYMNWVRQAPGQGLEWIGVFNPYSGGISYAQKFKGRVTLTVDTSTSTAYMELSSLRSEDTAVYYCARDYYYLSSHGFYALDYWGQGTTVTVSS VL: DIQLTQSPSSLSASVGDRVTITCRASESVDSYGNSFIHWYQQKPGKAPKLLMYRASNLESGVPSRFSGSGSGTDFTLTISSLQPEDFATYYCQQSNEDPLTFGQGTKLEIK | 614 | 0.000482 | 785000 | –

Second part, led by results:

Kd [1] [pM] | koff [1] [s⁻¹] | kon [1] [M⁻¹ s⁻¹] | Binder | also measured
202 | 0.000224 | 1.11e+06 | 124B11F6-hH2L2 (antibody, IgG1, V domains shown, Humanized; hIgG1, Lambda) VH: QVQLVQSGAEVKKPGASVKVSCKASVFNIKDYYMHWVRQAPGQGLEWIGRIDPEDDKTKYAPKFQGRVTITADTSTSTAYLELSSLRSEDTAVYYCVRGWLGYIMDFWGQGTTVTVSS VL: QLVLTQSPSASASLGASVKLTCTLSSQHSTYTIDWYQQQPEKGPRYVMELKEDGSHSTGDGIPDRFSGSSSGAERYLTISSLQSEDEADYICGVGATIKEQFVYVFGGGTKVTVL | –
80.6 | 0.000341 | 4.23e+06 | 21F6C6-hH1L1 (antibody, IgG1, V domains shown, Humanized; hIgG1 heavy chain constant region, Kappa light chain constant region) VH: EVQLVESGGGLVKPGGSLRLSCAASGFTFSSYAMSWVRQAPGKGLEWVATISSGGSLIYYPDSVTGRFTISRDNAKSTLYLQMNSLRAEDTAVYYCVRHGYYYGDSTLYYAMDYWGQGTTVTVSS VL: DIQLTQSPSSLSASVGDRATITCRASQSVDYDGDSYMNWYQQKPGKAPKLLIYAASNLESGIPARFSGSGSGTDFTLTISSVQPEDFATYYCQQSNEAPLTFGQGTKLEIK | –
68.3 | 0.000314 | 4.59e+06 | 21F6C6-hH2L2 (antibody, IgG1, V domains shown, Humanized; hIgG1, Kappa) VH: EVQLVESGGGLVKPGGSLRLSCAASGFTFSSYAMSWVRQAPGKGLEWVATISSGGSLIYYADSVTGRFTISRDNAKNTLYLQMNSLRAEDTAVYYCVRHGYYYGDSTLYYAMDYWGQGTTVTVSS VL: DIQLTQSPSSLSASVGDRATITCRASQSVDYDGDSYMNWYQQKPGKAPKLLIYAASNLESGVPSRFSGSGSGTDFTLTISSVQPEDFATYYCQQSNEAPLTFGQGTKLEIK | –
68.4 | 0.000375 | 5.49e+06 | 21F6C6 chimeric antibody (antibody, human IgG1, V domains shown, also called 21F6C6-mHL) VH: EVMLVESGGGLVKPGGSLKLSCAASGFTFSSYAMSWVRQSPEKRLEWVATISSGGSLIYYPDSVTGRFTISRDNAKSTLYLQMSSLRSEDTAMYYCVRHGYYYGDSTLYYAMDYWGPGTSVTVSS VL: DIVLTQSPASLAVSLGQRATISCKASQSVDYDGDSYMNWYQQKPGQPPKLLIYAASNLESGIPARFSGSGSGTDFTLNIHPVEEEDAATYYCQQSNEAPLTFGAGTKLELK | Kd [2]: 47.3 pM; koff [2]: 0.000187 s⁻¹; kon [2]: 3.95e+06 M⁻¹ s⁻¹; cross-competition score [3]: 4.92%; cross-competition score [4]: 4.98%; EC50 [5]: 4.81 ng/mL; EC50 [6]: 6.61 ng/mL; EC50 [7]: 1180 pM; cross-competition score [8]: 56.8%; cross-competition score [9]: 101%
